Source: PMC4591219 (Cell reports, 2015)
Residue numbers refer to the chain shown, from its start. One block for each binder: values may come before it.

Legend:
[1] = molecular target: T1, full-length Poz1 (in the purified Poz1-Tpz1 complex) (S. pombe, UniProt O13852 1-249); assay: cross-linking
T1 sequence: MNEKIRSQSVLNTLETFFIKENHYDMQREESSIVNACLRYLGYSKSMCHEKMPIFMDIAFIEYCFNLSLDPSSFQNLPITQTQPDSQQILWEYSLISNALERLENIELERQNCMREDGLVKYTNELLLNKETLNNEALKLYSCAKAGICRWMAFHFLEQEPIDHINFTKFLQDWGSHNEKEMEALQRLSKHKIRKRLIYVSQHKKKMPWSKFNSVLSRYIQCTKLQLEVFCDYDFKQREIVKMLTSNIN

[2] = molecular target: T2, Poz1 (wild type, recombinant, GST pull-down) (S. pombe, UniProt O13852 1-249); assay: pull-down
T2 sequence: T1 sequence

Poz1-W209A (recombinant) = molecular target: T3, Poz1-W209A (recombinant) (S. pombe, UniProt O13852 1-249, W209A); assay: pull-down
T3 sequence: T1 sequence with W209A

Poz1-W174R (recombinant) = molecular target: T4, Poz1-W174R (recombinant) (S. pombe, UniProt O13852 1-249, W174R); assay: pull-down
T4 sequence: T1 sequence with W174R

Ccq1 (130–439) = molecular target: T5, Ccq1 (130–439) (S. pombe, UniProt Q10432 130-439); assay: cross-linking
T5 sequence: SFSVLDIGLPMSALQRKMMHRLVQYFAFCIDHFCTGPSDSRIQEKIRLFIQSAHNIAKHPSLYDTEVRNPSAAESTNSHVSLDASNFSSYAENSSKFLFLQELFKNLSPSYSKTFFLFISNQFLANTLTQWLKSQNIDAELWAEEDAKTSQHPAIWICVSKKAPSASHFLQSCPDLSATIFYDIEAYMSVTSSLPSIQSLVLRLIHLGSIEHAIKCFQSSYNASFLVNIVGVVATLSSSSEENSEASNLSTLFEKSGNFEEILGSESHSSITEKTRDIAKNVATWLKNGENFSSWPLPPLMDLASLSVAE

Pot1-I453R = molecular target: T6, Pot1-I453R (Schizosaccharomyces pombe, UniProt O13988 1-555, I453R); assay: EMSA
T6 sequence: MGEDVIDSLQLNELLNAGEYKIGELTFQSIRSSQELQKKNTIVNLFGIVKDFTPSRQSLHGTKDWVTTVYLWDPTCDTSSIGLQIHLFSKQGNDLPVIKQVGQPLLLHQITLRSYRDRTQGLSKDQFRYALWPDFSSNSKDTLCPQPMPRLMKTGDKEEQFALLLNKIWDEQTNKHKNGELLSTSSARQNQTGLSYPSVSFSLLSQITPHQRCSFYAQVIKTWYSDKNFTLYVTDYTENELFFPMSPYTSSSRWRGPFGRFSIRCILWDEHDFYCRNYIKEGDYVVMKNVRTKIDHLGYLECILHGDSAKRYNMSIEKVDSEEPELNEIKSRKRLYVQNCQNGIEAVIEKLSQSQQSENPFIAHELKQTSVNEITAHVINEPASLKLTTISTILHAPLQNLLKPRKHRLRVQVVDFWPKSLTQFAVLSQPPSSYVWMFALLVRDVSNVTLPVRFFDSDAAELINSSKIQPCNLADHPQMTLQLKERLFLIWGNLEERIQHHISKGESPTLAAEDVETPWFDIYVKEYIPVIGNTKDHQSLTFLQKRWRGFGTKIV

Pot1-F520A = molecular target: T7, Pot1-F520A (Schizosaccharomyces pombe, UniProt O13988 1-555, F520A); assay: EMSA
T7 sequence: T6 sequence with R453I, F520A

[3] = molecular target: T8, Pot1 (wild type, recombinant, GST pull-down) (S. pombe, UniProt O13988 1-555); assay: pull-down
T8 sequence: T6 sequence with R453I

[4] = molecular target: T9, full-length Pot1 (in the purified Pot1–Tpz1-NTD complex) (S. pombe, UniProt O13988 1-555); assay: cross-linking
T9 sequence: T6 sequence with R453I

binding result [3]: binds
B5: GST-Tpz1-NTD (2–234) (domain or fragment)
chain: SNCLKHPWLENGLLNLIKNADVLPIRVFKCQPLQIFEYIRYEHPIRCKLSDTEFYIEAEFSSQSISDLNNFTEKRITSLRGGIVTLGNFLIHLIPSQSGIIPWIQVESFNFQGCEGAVFGNPKAITTSALFNALLQSPYLAALANEFNRSIKEGSSYQEASLSQQEKPNDNTSNSRDIKNNIQFHWKNMTSLSIEECIIPKGQQLILEKESEENTTHGIYLEERKMAQGLHNS

binding result [4]: binds
B6: Tpz1-NTD (1–234) (in the purified Pot1–Tpz1-NTD complex) (domain or fragment)
chain: MSNCLKHPWLENGLLNLIKNADVLPIRVFKCQPLQIFEYIRYEHPIRCKLSDTEFYIEAEFSSQSISDLNNFTEKRITSLRGGIVTLGNFLIHLIPSQSGIIPWIQVESFNFQGCEGAVFGNPKAITTSALFNALLQSPYLAALANEFNRSIKEGSSYQEASLSQQEKPNDNTSNSRDIKNNIQFHWKNMTSLSIEECIIPKGQQLILEKESEENTTHGIYLEERKMAQGLHNS

Continued, binder first:

B1: Tpz1 (406–508) (in the purified Poz1-Tpz1 complex) (domain or fragment)
chain: SSVISCTPPAINFTSDICNEQIELEYKRKPIPDYDFMKGLETTLQELYVEHQSKKRRLELFQLTNNHQKNSEACEMCRLGLPHGSFFELLRDWKKIEEFRNKS
binding result [1]: binds

B2: GST-Tpz1-CTD (406–508) (domain or fragment)
chain: B1 chain
binding result [2]: binds
binding result (Poz1-W209A (recombinant)): binds
binding result (Poz1-W174R (recombinant)): binds

B3: Tpz1 (415–458) (domain or fragment)
chain: AINFTSDICNEQIELEYKRKPIPDYDFMKGLETTLQELYVEHQS
binding result (Ccq1 (130–439)): binds

B4: telomeric ssDNA 19-mer (ssDNA)
DNA: GTTACGGTTACAGGTTACG
binding result (Pot1-I453R): binds
binding result (Pot1-F520A): binds
